Reference: US20050048579A1, “Tertiary structures of ICAM-1/LFA-1 modulators” (priority 2003, published 2005)
Bridge positions count the residues as written; N and C are the ends. Ends that are not written are not given here. Peptide text beside a SMILES is read from it.

Target: T1, Intercellular adhesion molecule-1 (ICAM-1) on JY cells (UniProt P05362 28-532, limits assumed)
Assay: cell-based or functional assay
Conditions: not given

T1 sequence (P05362 28-532 limits assumed): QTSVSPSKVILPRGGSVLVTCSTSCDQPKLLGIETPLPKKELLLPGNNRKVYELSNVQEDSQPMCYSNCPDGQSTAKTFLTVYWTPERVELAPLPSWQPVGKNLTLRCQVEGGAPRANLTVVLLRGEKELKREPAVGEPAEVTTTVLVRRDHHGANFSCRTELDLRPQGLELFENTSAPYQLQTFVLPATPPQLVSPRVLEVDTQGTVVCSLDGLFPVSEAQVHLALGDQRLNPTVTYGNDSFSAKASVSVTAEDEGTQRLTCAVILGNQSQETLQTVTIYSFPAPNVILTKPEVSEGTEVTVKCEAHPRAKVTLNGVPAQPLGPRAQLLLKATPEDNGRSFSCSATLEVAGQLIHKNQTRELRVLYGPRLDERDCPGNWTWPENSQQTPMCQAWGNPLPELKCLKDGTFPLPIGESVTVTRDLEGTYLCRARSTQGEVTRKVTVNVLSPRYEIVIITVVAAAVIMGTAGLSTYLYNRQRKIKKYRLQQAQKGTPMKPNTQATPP

Point of comparison: CLLRMRSIC (disulfide 1-9) [IP01 (inhibitory peptide-01)], “IC50, inhibition of JY cell aggregation at 2 hours” value 530 µM. Against it:
- CLLRMASIC (disulfide 1-9) [IP01-A6] — higher, > 1000 µM
- CLARMRSIC (disulfide 1-9) [IP01-A3] — higher, > 1000 µM
- CLLRARSIC (disulfide 1-9) [IP01-A5] — higher, > 1000 µM
- CALRMRSIC (disulfide 1-9) [IP01-A2] — higher, > 1000 µM
- CLLRMRAIC (disulfide 1-9) [IP01-A7] — within 1.5-fold, 740 µM
- CLLRMRSAC (disulfide 1-9) [IP02] — 2.5-fold lower, 210 µM

Target: T1, Intercellular adhesion molecule-1 …
Assay: cell-based or functional assay
Conditions: not given
Remark: another data set of the same source

Point of comparison: CLIRMRSAC (disulfide 1-9) [IP02-I3], “IC50, inhibition of JY cell aggregation, 360 minute incubation” value ~700 µM. Against it:
- CLLRMKSAC (disulfide 1-9) [IP02-K6] — 7.8-fold lower, 90 µM
- CLLRMRSLC (disulfide 1-9) [IP02-L8] — higher, > 1000 µM
- CVLRMRSAC (disulfide 1-9) [IP02-V2] — higher, > 1000 µM
- CLVRMRSAC (disulfide 1-9) [IP02-V3] — higher, > 1000 µM
- CLLRMRSIC (disulfide 1-9) [IP01 (inhibitory peptide-01)] — within 1.5-fold, 580 µM
- CLLRMRSVC (disulfide 1-9) [IP02-V8] — the same, ~700 µM
- CLLRMRSAC (disulfide 1-9) [IP02] — within 1.5-fold, 480 µM

CLLRMKSAC (disulfide 1-9) [IP02-K6] was tested, and the “fold smaller IC50 than IP01 (JY cell aggregation, 360 minutes)” value was ~6 fold.

For CLLRMRSAC (disulfide 1-9) [IP02], the “fold improvement of activity over IP01 (JY cell aggregation)” value was 2 fold.

In the case of CLLRMRSAC (disulfide 1-9) [IP02], the “fold improvement of inhibition over IP01 (JY cell aggregation IC50)” value is reported as 2.5 fold.

Target: T2, LFA-1 binding to ICAM-1 (JY cells) (Homo sapiens, UniProt P05362)
T2 construct: endogenous in cells; host or cells: JY cells
T2 sequence (P05362 28-532): as the sequence (P05362 28-532 limits assumed) above
Assay: LFA-1:ICAM-1 dependent JY cell aggregation assay (2 hours)
Format: cell-based
Conditions: not given
Method: Cysteine-constrained peptides, synthesized by Biopeptide (San Diego, Calif., USA), were isolated using high-performance liquid chromatography, and their correct mass was confirmed by mass spectrometry. The peptides were dissolved in 5% dimethylsulfoxide in phosphate-buffered saline (PBS) at concentrations of 10 mm and stored at −80° C. until use. The mAb directed against LFA-1 (TS1/18) was purified from a hybridoma line ([…], Manassas, Va.) as described previously (Oj, V. T. & Herzenberg, T. (1980) Immunoglobulin-producing hybrid celllines. In Selected Methods in Cellular Immunology (Mishell, B. B. & Shiigi, S. M.,eds), H. H. Freeman, New York; Larson, R. S., Brown, D. C. & Sklar, L. A.(1997) Retinoic acid induces aggregation of the acute promyelocytic leukemia cell lineNB-4 by utilization of LFA-1 and ICAM-2.Blood 90, 2747-2756; Rothlein, R. & Springer, T. A. (1986) The requirement for lymphocyte function associated antigen 1 in homotypic leukocyte adhesion stimulated by phorbol ester. J. Exp.Med. 163, 1132-1149).
(§1) JY cells were maintained in RPMI-1640 medium supplemented with 10% fetal bovine serum at 37° C. in an atmosphere containing 5% CO2 in air. The aggregation of JY cells, which is dependent on LFA-1 binding to ICAM-1, was determined as previously reported (Shannon, J. P., Silva, M. V., Brown, D. C. & Larson, R. S. (2001) Novel cyclic peptide inhibits intercellular adhesion molecule-1-mediated cell aggregation. J. Pept. Res. 58, 140-150; Larson, R. S., Brown, D. C. & Sklar, L. A.(1997) Retinoic acid induces aggregation of the acute promyelocytic leukemia cell lineNB-4 by utilization of LFA-1 and ICAM-2.Blood 90, 2747-2756; Rothlein, R. & Springer, T. A. (1986) The requirement for lymphocyte function associated antigen 1 in homotypic leukocyte adhesion stimulated by phorbol ester. J. Exp.Med. 163, 1132-1149). Briefly, JY cells were washed twice with serum-free media and resuspended at a concentration of 4×10^5 cells/mL. Cells were then preincubated with various concentrations of peptides or mAb for 15 minutes at room temperature. A 50 μL aliquot of cells was seeded in each well of a 96-well flat-bottomed microtiterplate followed by the addition of either peptide or mAb to a final volume of 100 μL. Cells were allowed to aggregate at 37° C. in humidified air containing 5% CO2. Within each well, the number of aggregates and the total number of free (single) cells were counted by inverted phase microscopy. Percent aggregation, P, was then determined as follows: P=100(1−Ff/Fi), where Ff (Fi) is the final (initial) number of free cells. Percent aggregation was then used to calculate percent inhibition, I, as follows: […], where Pi (Pc) is the percent aggregation with modulatory peptide (control). The constants for 50% inhibition (IC50) were derived from a linear fit to the percent inhibition at four concentrations (50 μm, 100 μm, 500 μm, and 1 mm) of inhibitory peptide. Each experiment was performed at least three times, with each condition performed in duplicate. The data are reported as the mean values and the SDs of each IC50.

`CC[C@H](C)[C@@H]1NC(=O)[C@H](CO)NC(=O)[C@H](CCCNC(=N)N)NC(=O)[C@H](CCSC)NC(=O)[C@H](CCCNC(=N)N)NC(=O)[C@H](CC(C)C)NC(=O)[C@H](C)NC(=O)[C@@H](N)CSSC[C@@H](C(=O)O)NC1=O` [IP01-A2, CALRMRSIC] (H-CALRMRSIC-OH; disulfide 1-9; N-terminus and C-terminus assumed) was tested, and the IC50 was > 1000 µM.

Same assay, conditions: listed as S7 to alanine substitution

`CC[C@H](C)[C@@H]1NC(=O)[C@H](C)NC(=O)[C@H](CCCNC(=N)N)NC(=O)[C@H](CCSC)NC(=O)[C@H](CCCNC(=N)N)NC(=O)[C@H](CC(C)C)NC(=O)[C@H](CC(C)C)NC(=O)[C@@H](N)CSSC[C@@H](C(=O)O)NC1=O` [IP01-A7, CLLRMRAIC] (H-CLLRMRAIC-OH; disulfide 1-9; N-terminus and C-terminus assumed) was tested, and the “bioactivity after alanine substitution (in words)” value was “retained significant bioactivity”.

Target: T2, LFA-1 binding to ICAM-1 (JY cells)
Assay: LFA-1:ICAM-1 dependent cell aggregation assay, slightly modified (360 minute incubations)
Format: cell-based
Conditions: cell aggregation
Method: as §1
The same general procedure was used as described in Example 1.
The functional activity of each IP02 derivative was measured in a slightly-modified version of the previously described cell aggregation assay (Shannon, J. P., Silva, M. V., Brown, D. C., & Larson, R. S. (2001). Novel cyclic peptide inhibits intercellular adhesion molecule-1-mediated cell aggregation. J. Pept. Res. 58, 140-150; Merchant, S. H., Gurule, D. M., Larson, R. S. (2003). Amelioration of ischemia-reperfusion injury with cyclic peptide blockade of ICAM-1. Am. J. Physiol. Heart Circ. 284,H1260-1268; Larson, R. S., Brown, D. C., and Sklar, L. A. (1997). Retinoic acid induces aggregation of the acute promyelocytic leukemia cell line NB-4 by utilization of LFA-1 and ICAM-2. Blood 90, 2747-2756; Rothlein, R. and Springer, T. A. (1986). The requirement for lymphocyte function-associated antigen 1 in homotypic leukocyte adhesion stimulated by phorbol ester. J. Exp. Med. 163, 1132-1149). Longer incubations (360 minutes) were used here instead of the earlier 120 minute incubations in order to increase the observed differences among peptide antagonists. Of all the amino acid substitutions, replacement of R6 with K, to produce IP02-K6, improved the IC50 the most. […] Alternatively, replacement of L2 or L3 with V (IP02-V2 and IP02-V3) or A8 with L (IP02-L8) abrogated activity, with IC50s exceeding 1,000 μM.

Point of comparison: `CSCC[C@@H]1NC(=O)[C@H](CCCNC(=N)N)NC(=O)[C@H](CC(C)C)NC(=O)[C@H](CC(C)C)NC(=O)[C@@H](N)CSSC[C@@H](C(=O)O)NC(=O)[C@H](C(C)C)NC(=O)[C@H](CO)NC(=O)[C@H](CCCNC(=N)N)NC1=O` [IP02-V8] (H-CLLRMRSVC-OH; disulfide 1-9; N-terminus and C-terminus assumed), IC50 700 µM. Against it:
- CSCC[C@@H]1NC(=O)[C@H](CCCNC(=N)N)NC(=O)[C@H](CC(C)C)NC(=O)[C@H](CC(C)C)NC(=O)[C@@H](N)CSSC[C@@H](C(=O)O)NC(=O)[C@H](CC(C)C)NC(=O)[C@H](CO)NC(=O)[C@H](CCCNC(=N)N)NC1=O [IP02-L8, CLLRMRSLC] (H-CLLRMRSLC-OH; disulfide 1-9; N-terminus and C-terminus assumed) — higher, > 1000 µM
- CC[C@H](C)[C@@H]1NC(=O)[C@@H](N)CSSC[C@@H](C(=O)O)NC(=O)[C@H](C)NC(=O)[C@H](CO)NC(=O)[C@H](CCCNC(=N)N)NC(=O)[C@H](CCSC)NC(=O)[C@H](CCCNC(=N)N)NC(=O)[C@H](CC(C)C)NC1=O [IP02-12, CILRMRSAC] (H-CILRMRSAC-OH; disulfide 1-9; N-terminus and C-terminus assumed) — lower, 105 to 190 µM
- CSCC[C@@H]1NC(=O)[C@H](CCCNC(=N)N)NC(=O)[C@H](CC(C)C)NC(=O)[C@H](C(C)C)NC(=O)[C@@H](N)CSSC[C@@H](C(=O)O)NC(=O)[C@H](C)NC(=O)[C@H](CO)NC(=O)[C@H](CCCNC(=N)N)NC1=O [IP02-V2] (H-CVLRMRSAC-OH; disulfide 1-9; N-terminus and C-terminus assumed) — higher, > 1000 µM
- CSCC[C@@H]1NC(=O)[C@H](CCCNC(=N)N)NC(=O)[C@H](C(C)C)NC(=O)[C@H](CC(C)C)NC(=O)[C@@H](N)CSSC[C@@H](C(=O)O)NC(=O)[C@H](C)NC(=O)[C@H](CO)NC(=O)[C@H](CCCNC(=N)N)NC1=O [IP02-V3] (H-CLVRMRSAC-OH; disulfide 1-9; N-terminus and C-terminus assumed) — higher, > 1000 µM
- CSCC[C@@H]1NC(=O)[C@H](CCCCN)NC(=O)[C@H](CC(C)C)NC(=O)[C@H](CC(C)C)NC(=O)[C@@H](N)CSSC[C@@H](C(=O)O)NC(=O)[C@H](C)NC(=O)[C@H](CO)NC(=O)[C@H](CCCNC(=N)N)NC1=O [IP02-K4, CLLKMRSAC] (H-CLLKMRSAC-OH; disulfide 1-9; N-terminus and C-terminus assumed) — lower, 105 to 190 µM

Same assay, conditions: cell aggregation, unit μm [sic]

Point of comparison: `CSCC[C@@H]1NC(=O)[C@H](CCCNC(=N)N)NC(=O)[C@H](CC(C)C)NC(=O)[C@H](CC(C)C)NC(=O)[C@@H](N)CSSC[C@@H](C(=O)O)NC(=O)[C@H](C(C)C)NC(=O)[C@H](CO)NC(=O)[C@H](CCCNC(=N)N)NC1=O` [IP02-V8] (H-CLLRMRSVC-OH; disulfide 1-9; N-terminus and C-terminus assumed), IC50 ~700 µM. Against it:
- CC[C@H](C)[C@@H]1NC(=O)[C@H](CC(C)C)NC(=O)[C@@H](N)CSSC[C@@H](C(=O)O)NC(=O)[C@H](C)NC(=O)[C@H](CO)NC(=O)[C@H](CCCNC(=N)N)NC(=O)[C@H](CCSC)NC(=O)[C@H](CCCNC(=N)N)NC1=O [IP02-13, CLIRMRSAC] (H-CLIRMRSAC-OH; disulfide 1-9; N-terminus and C-terminus assumed) — the same, ~700 µM
